Our source for the Fold change and EC50 values is US20240409645A1 (DUALYX, published 2024).

In experiment [1] the target is T1, cynomolgus monkey IL-2Rβ/CD122 subunit (cynomolgus monkey, UniProt Q38J85 27-239, limits assumed).
T1 construct: also called Cyno IL-2R subunit
T1 sequence (looked up): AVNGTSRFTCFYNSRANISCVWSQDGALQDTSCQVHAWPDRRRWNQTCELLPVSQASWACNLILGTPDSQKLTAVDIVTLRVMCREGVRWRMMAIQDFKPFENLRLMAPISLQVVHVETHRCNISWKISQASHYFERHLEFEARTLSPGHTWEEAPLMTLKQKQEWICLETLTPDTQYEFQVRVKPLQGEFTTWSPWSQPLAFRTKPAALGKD
In words: ELISA, bivalent; EC50 cyno vs human subunit. As to the method:
(§1) Monospecific monovalent and bivalent IL-2Rα-, IL-2Rβ- and IL-2Rγ-specific antibodies that were selected on human IL-2R subunits, were evaluated for their cross-reactivity in an ELISA. Human and cynomolgus monkey receptor subunits (Acrobiosystems, KactusBiosystems) were coated at 1 μg/mL in PBS (pH 7.4) in a Maxisorp plate (Nunc) and incubated overnight at 4° C. The plates were further washed with PBS-Tween pH 7.4 and incubated with 1% cascin/PBS-Tween blocking solution for 1 hour shaking at 400 rpm. Subsequently, the plate was washed three times with PBS-Tween pH 7.4, after which the test antibodies diluted in 0.1% casein/PBS-Tween were added to the plate and incubated for 1 hour. The plate was again washed three times, after which goat anti-human IgG Fc (HRP) detection antibody (abcam) was added to the plate and incubated for 30 min. The colouring reaction was performed with TMB (Sigma-Aldrich) and stopped with 0.5N H₂SO₄.
(§2) Absorbance was measured at 450 nm with the reference wavelength of 620 nm using spectrophotometer. Final analysis and graphic output were performed with GraphPad Prism version 8 (GraphPad Software). The dose-response binding curves were fit to a nonlinear regression model (log (agonist) vs. response with a variable slope (four parameters)).

The target in experiment [2] is T1, cynomolgus monkey IL-2Rβ/CD122 subunit. In words: ELISA, bivalent VHH-hFc. The protocol:
as §1, §2

Experiment [3] concerns the target T2, human interleukin-2 receptor β-chain (IL-2Rβ; CD122), recombinant protein (human, UniProt P14784 27-240).
T2 construct: also called human IL-2R subunit CD122
T2 sequence: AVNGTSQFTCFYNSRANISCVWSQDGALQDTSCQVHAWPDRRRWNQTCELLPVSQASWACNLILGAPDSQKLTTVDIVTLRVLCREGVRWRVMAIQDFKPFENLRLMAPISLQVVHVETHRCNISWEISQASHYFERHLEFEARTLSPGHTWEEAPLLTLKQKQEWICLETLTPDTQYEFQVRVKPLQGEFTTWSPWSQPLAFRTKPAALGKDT
In words: ELISA, bivalent VHH-hFc. As to the method: as §1, §2
On the technique in general: An ELISA detects its analyte on a solid surface through an enzyme-linked reagent.

B1: 24-MP06E05 VHH-hFc, monospecific bivalent (Fc fusion)
chain: QVQLVESGGELVQGGASLRLSCAASGRTFSNANMAWFRQAPEKEREFVALITWSSGSTLYADSVKGRFTISRDNARKMVYLQMNSLKPEDTAVYYCAADGPPYSGTYYRYDTYDYWGQGTQVTVSS
notes: IgG1 Fc LALA-PG; not shown: human IgG1 CH2 and CH3 domains (Fc)
B1 yielded a Fold change in experiment [1] of 1.4 fold. The EC50 – broadly, the concentration needed to bring the measured effect to its halfway point – in experiment [2] was found to be 0.265 nM; in experiment [3] it was 0.191 nM.

B2: 115-MP02E01 VHH-hFc, monospecific bivalent (Fc fusion)
chain: EVQLVESGGGLVQIGGSLRLSCAASGRTFSSITMAYFRQVPGKEREWVAGINFSGTRTFYADSVKGRFLISRDDAKSTMYLQMNSLKPEDTAVYYCAASPRGFYGPGNALYDYWGQGTQVTVSS
notes: as for B1
Take B2: in experiment [1], the Fold change is 1 fold. For the same molecule, the EC50 in experiment [2] and in experiment [3] was 0.06 nM in each case.

B3: 22-MP03F12 VHH-hFc, monospecific bivalent (Fc fusion)
chain: EVQLVESGGGLVQAGGSLRLSCAASGSIFSINAMAWFRQVPGMERELVAAISRDGGASVYRDSVKGRFTISRDNSKNTVYLQMNTLKPEDTAIYVCAATRAIGWTARWITTDFDFWGQGTQVTVSS
notes: as for B1
As for B3, the Fold change in experiment [1] came out at 1 fold. In addition, the EC50 in experiment [2] turned out to be 0.122 nM; in experiment [3] it was 0.124 nM.

B4: 23-MP06F03 VHH-hFc, monospecific bivalent (Fc fusion)
chain: QVQLVESGGGLVQAGGSLRLSCAVSGDVFVRYTMAWFRQAPGKEREFVASVTDSGRTTDYVHSVKGRFTVSRDNAKNTVYLQMNNLKPEDTAVYYCAANTDYFQIKSLDANTWGQGTQVTVSS
notes: as for B1
In experiment [1], B4 yielded a Fold change of 1.3 fold. Moreover, the EC50 in experiment [2] came to 0.157 nM; in experiment [3], 0.125 nM.

B5: 26-MP06A07 VHH-hFc, monospecific bivalent (Fc fusion)
chain: QVQLQESGGGLVQAGGSLRLSCAASGDVFVRYTMAWFRQAPGKEREFVASVTDSGRTTEYVDSVKGRFTVSRDNAKNTAYLQMNNLKPEDTAIYYCAANTDYFQIRSLDLNTWGQGTQVTVSS
notes: as for B1
Regarding B5, the Fold change in experiment [1] came to 1.2 fold. Further, the EC50 in experiment [2] came to 0.138 nM; in experiment [3], 0.117 nM.

B6: 18-MP03C03 VHH-hFc, monospecific bivalent (Fc fusion)
chain: QVQLVESGGGLVQPGGSLRLSCAISGGTLDSYGIGWVRQAPGKQREGVSCMSRSDDRTYYADSVKGRFTISKDSAKNTVYLQMTSLKPEDTAVYYCAAVDAYGCSLVQPTTYDFWGLGTQVTVSS
notes: as for B1
In the case of B6, the Fold change in experiment [1] is 1 fold. Besides, the EC50 in experiment [2] was determined as 0.3 nM; in experiment [3], 0.294 nM.

B7: 17-MP02C09 VHH-hFc, monospecific bivalent (Fc fusion)
chain: QVQLQESGGGLVQAGGSLRLSCVASGSVSSINGMAWYRQGADNQRVLVAAISRVGNTAYGDSVKGRFTISRQNARNTVYLQMNSLKPEDTAVYYCNADSWGGDDYWGQGTQVTVSS
notes: IgG1 Fc LALA-PG; also called anti-IL-2Rβ Ab 17; not shown: human IgG1 CH2 and CH3 domains (Fc)
Take B7: the Fold change in experiment [1] amounted to 1.5 fold. The EC50 was 0.184 nM in experiment [2] and 0.124 nM in experiment [3].

B8: 19-MP03F08 VHH-hFc, monospecific bivalent (Fc fusion)
chain: EVQLVESGGGLVQTGGSLRLSCAASGGTFSRDAMAWFRQVPGKEREFVALISWSGATTNYADSVKGRFAISRDNGKNTVYLQMNRLKPADTAIYYCAADRRPMGSRSYFEPTEYDDWGQGTQVTVSS
notes: as for B1
B8 gave a Fold change in experiment [1] of 0.8 fold. Moreover, the values for the EC50 in experiment [2] and in experiment [3] were 0.603 nM and 0.794 nM, respectively.

B9: 15-MP02E06 VHH-hFc, monospecific bivalent (Fc fusion)
chain: QVQLVESGGGSVQPGGSLRLSCAASGFTFSNYAMSWVRQAPGKGLEWVASITGFGRGTDYADSVKGRFTISRDNAEDTLYLQMNSLKPEDTAVYYCAKYSSSTYYPPTPARGRDYRGQGTQVTVSS
notes: IgG1 Fc LALA-PG; also called anti-IL-2Rβ Ab 15; not shown: human IgG1 CH2 and CH3 domains (Fc)
As for B9, the Fold change in experiment [1] was 4.3 fold. Further, the EC50 in experiment [2] was 0.895 nM; in experiment [3], 0.209 nM.

B10: 16-MP02B08 VHH-hFc, monospecific bivalent (Fc fusion)
chain: EVQLVESGGGLVQAGGSLRLSCAASGRAIENYPVGWFRQAPGKEREFVAAITWISGSTLYADSVKGRFTISRDNAKNTVYLQMSSLKPEDTALYYCAAALKTITRGQNDYSYWGQGTQVTVSS
notes: as for B1
Molecule B10 displayed a Fold change in experiment [1] of 0.9 fold. Moreover, the EC50 turned out to be 0.23 nM in experiment [2] and 0.245 nM in experiment [3].
